# Values joined by “and” are separate entries in the source; they are usually repeats but may differ in a detail not shown here. Equal entries are not always repeated.
# B1: Tryptophan synthase alpha chain, P0A877 (parent)
# chain: MERYESLFAQLKERKEGAFVPFVTLGDPGIEQSLKIIDTLIEAGADALELGIPFSDPLADGPTIQNATLRAFAAGVTPAQCFEMLALIRQKHPTIPIGLLMYANLVFNKGIDEFYAQCEKVGVDSVLVADVPVEESAPFRQAALRHNVAPIFICPPNADDDLLRQIASYGRGYTYLLSRAGVTGAENRAALPLNHLVAKLKEYNAAPPLQGFGISAPDQVKAAIDAGAAGAISGSAIVKIIEQHINEPEKMLAALKVFVQPMKAATRS
# Variants of: B1
# Details: Escherichia coli (strain K12), pH 7, 25 °C, GdnHCl, CD, Tris-HCl 20 mM, reversible: yes, structure 1WQ5, whole UniProt chain shown
Variant,ddG of mutation (higher = less stable) [kcal/mol],unfolding free energy [kcal/mol],unfolding free energy (transition: 3),ddG of mutation (higher = less stable) (transition: 3)
P28A,1.91,6.29,2.27 kcal/mol and 4.04 kcal/mol,
P132A,1.05,7.15,3.33 kcal/mol and 3.85 kcal/mol,
P96A,2.13,6.08,2.63 kcal/mol and 3.44 kcal/mol,1.6 kcal/mol and 0.55 kcal/mol
P207A,,,2.44 kcal/mol and 4.62 kcal/mol,
P62A,0.31,7.89,3.54 kcal/mol and 4.35 kcal/mol,
P57A,0.48,7.73,4 kcal/mol and 3.76 kcal/mol,0.24 kcal/mol
